Assay results taken from PMC8691596.

Experiments:
[1] = biological target: cynomolgus monkey FcRn, heterodimer with β2 microglobulin, extracellular domain with C-terminal hexa-His (cynomolgus monkey | not stated) (UniProt Q8SPV9); test: SPR
[2] = biological target: human FcRn, heterodimer with β2 microglobulin, extracellular domain with C-terminal hexa-His (UniProt P55899); test: SPR
[3] = biological target: mouse FcRn, heterodimer with β2 microglobulin, extracellular domain with C-terminal hexa-His (mouse | not stated) (UniProt Q61559); test: SPR
[4] = biological target: human FcγRIIa H131 extracellular domain, C-terminal hexa-His (independently-made panel) (human) (UniProt P12318)
Sequence of human FcγRIIa H131 extracellular domain, C-terminal hexa-His (independently-made panel) (human) (P12318 34-217): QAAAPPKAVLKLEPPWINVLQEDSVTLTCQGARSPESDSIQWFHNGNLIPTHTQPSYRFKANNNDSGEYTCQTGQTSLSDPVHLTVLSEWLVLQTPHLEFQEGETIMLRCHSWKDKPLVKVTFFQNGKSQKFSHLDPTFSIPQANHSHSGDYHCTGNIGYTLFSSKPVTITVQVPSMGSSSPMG

Sequence of cynomolgus monkey FcRn, heterodimer with β2 microglobulin, extracellular domain with C-terminal hexa-His (cynomolgus monkey | not stated) (Q8SPV9 24-297, chain 1 of 2): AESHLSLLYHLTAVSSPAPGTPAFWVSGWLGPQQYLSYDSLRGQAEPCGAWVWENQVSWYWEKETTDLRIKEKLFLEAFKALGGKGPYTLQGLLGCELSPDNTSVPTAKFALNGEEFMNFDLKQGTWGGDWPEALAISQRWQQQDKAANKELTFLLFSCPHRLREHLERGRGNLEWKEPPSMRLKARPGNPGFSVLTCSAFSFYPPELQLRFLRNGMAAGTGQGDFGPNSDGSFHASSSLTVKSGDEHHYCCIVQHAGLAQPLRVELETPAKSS
Sequence of cynomolgus monkey FcRn, heterodimer with β2 microglobulin, extracellular domain with C-terminal hexa-His (cynomolgus monkey | not stated) (Q6T672 21-119, chain 2 of 2, further chain): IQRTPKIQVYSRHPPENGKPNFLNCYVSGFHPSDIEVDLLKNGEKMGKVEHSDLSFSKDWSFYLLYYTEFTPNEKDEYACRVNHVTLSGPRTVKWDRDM

Kd [1] [nM]	Kd [2] [nM]	Kd [3] [nM]	Mean normalised luminescence (% of wild-type reference); Promega Fc effector bioassay, Jurkat NFAT-luciferase cells with the receptor + Raji cells, antibody 10 μg/mL [4] [%]	Substance
347	562	71		Remicade (rituximab, wild-type human IgG1) (from UniProt P01857)
			100	anti-CD20 (rituximab variable regions) human IgG1 wild type reference (antibody)
